From article PMC11610669, “A Spectroscopic Study on the Amyloid‐β Interaction with Clicked Peptide‐Porphyrin Conjugates: a Vision Toward the Detection of Aβ Peptides in Aqueous Solution” (Chembiochem, 2024) come the findings set out here.

The labels stand for the following.
B1: unmetalated porphyrin-peptide conjugate Ph-Pep (peptide)
peptide: Ac-GKPGKLVFF-NH2
modifications: not fully specified (residue 2)
notes: designed N-terminal stretch of Ac-GK(N3)PGKLVFF-NH2; the K is the azidolysine that carries the porphyrin; hydrophobic core Aβ16-20 (KLVFF) of amyloid-β; numbers count on: the Aβ peptide; MALDI-TOF (M+H)+ 1876.12; calcd. for C103H121N22O13 1875.24; Structure drawn in Scheme 1 and Scheme 3; source: synthetic peptide (MW-SPPS), clicked on resin to Pra-OMe (CuAAC), porphyrin coupled on resin, cleaved …
B2: zinc porphyrin-peptide conjugate Zn-Ph-Pep (peptide)
peptide: Ac-GKPGKLVFF-NH2
modifications: not fully specified (residue 2); also: porphyrin as Zn(II) complex
notes: designed N-terminal stretch of Ac-GK(N3)PGKLVFF-NH2; the K is the azidolysine that carries the porphyrin; hydrophobic core Aβ16-20 (KLVFF) of amyloid-β; numbers count on: the Aβ peptide; MALDI-TOF (M+H)+ 1939.43; calcd. for C103H119ZnN22O13 1938.60; Structure drawn in Scheme 1 and Scheme 3; source: synthetic: Ph-Pep metalated with Zn(CH3COO)2, purified by RP-HPLC
B3: copper porphyrin-peptide conjugate Cu-Ph-Pep (peptide)
peptide: Ac-GKPGKLVFF-NH2
modifications: not fully specified (residue 2); also: porphyrin as Cu(II) complex
notes: designed N-terminal stretch of Ac-GK(N3)PGKLVFF-NH2; the K is the azidolysine that carries the porphyrin; hydrophobic core Aβ16-20 (KLVFF) of amyloid-β; numbers count on: the Aβ peptide; MALDI-TOF (M+H)+ 1937.73; calcd. for C103H118CuN22O13 1936.77; Structure drawn in Scheme 1; source: synthetic peptide (MW-SPPS), clicked in solution to Cu-Ph-Pra-OMe (CuAAC), purified by preparative HPLC

The term Kd denotes the concentration at which binding is half-saturated. Broadly, the koff is a measure of how fast the partners let go of each other. Lower therefore signals slow dissociation. What is called kon is the rate constant with which the complex forms. Low readings indicate slow association, high ones fast association.

The target in the assay is T1, Amyloid-β 42 peptide (UniProt P05067 672-713).
T1 construct: Amyloid-β peptide 1-42 (Aβ42), the cut product of the amyloid precursor protein; numbers count on: the Aβ peptide; For GCI it was immobilised on a polycarboxylate chip from Na acetate pH 4.5; also called Aβ42; Aβ
T1 sequence (P05067 672-713): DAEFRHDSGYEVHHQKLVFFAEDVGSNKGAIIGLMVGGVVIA
Put plainly: grating-coupled interferometry (GCI); Creoptix WAVE; Aβ42 immobilised on a 4PCH chip (1910±40 pg/mm^2); analytes injected as single-cycle 1:2 dilution series in PBS, 0.005 % Tween 20, 1 % DMSO, 0.2 mg/ml BSA; 25 °C; 100 μl/min; mass transport binding model with bulk correction. Conditions: both partners purified.
Molecule B1 came in with a Kd of 60 ± 1 µM, a koff of 0.0819 s⁻¹ and a kon of 1370 M⁻¹ s⁻¹.

On to B2, for which binding was put at a Kd of 46 ± 6 µM, the koff amounted to 0.002 s⁻¹ and the kon is 110 M⁻¹ s⁻¹.

Regarding B3, the Kd came out at 44 ± 6 µM, the koff worked out at 0.0931 s⁻¹ and the kon is 2100 M⁻¹ s⁻¹.
